Results as given in patent US11325966.

Experiments:
Assay in all cases: cell-based or functional assay
[1] = molecular target: HIV-1 Env of pseudovirus 3016.v5.c45 (HIV-1)
[2] = molecular target: HIV-1 Env of pseudovirus WITO4160.33 (HIV-1)
[3] = molecular target: HIV-1 Env of pseudovirus Ce1086_B2 (HIV-1)
[4] = molecular target: HIV-1 Env of pseudovirus CNE19 (HIV-1)
[5] = molecular target: HIV-1 Env of pseudovirus Q23.17 (HIV-1)
[6] = molecular target: HIV-1 Env of pseudovirus CAAN5342.A2 (HIV-1)
[7] = molecular target: HIV-1 Env of pseudovirus Q842.d12 (HIV-1)
[8] = molecular target: HIV-1 Env of pseudovirus 3817.v2.c59 (HIV-1)
[9] = molecular target: HIV-1 Env of pseudovirus HIV-16055-2.3 (HIV-1)
[10] = molecular target: HIV-1 Env of pseudovirus TRO.11 (HIV-1)
[11] = molecular target: HIV-1 Env of pseudovirus Q769.d22 (HIV-1)
[12] = molecular target: HIV-1 Env of pseudovirus Ce1176_A3 (HIV-1)
[13] = molecular target: HIV-1 Env of pseudovirus ZM109F.PB4 (HIV-1)
[14] = molecular target: HIV-1 Env of pseudovirus 0815.v3.c3 (HIV-1)
[15] = molecular target: HIV-1 Env of pseudovirus P1981_C5_3 (HIV-1)
[16] = molecular target: HIV-1 Env of pseudovirus 6480.v4.c25 (HIV-1)
[17] = molecular target: HIV-1 Env of pseudovirus PVO.4 (HIV-1)
[18] = molecular target: HIV-1 Env of pseudovirus C3347.c11 (HIV-1)
[19] = molecular target: HIV-1 Env of pseudovirus SC05_8C11_2344 (HIV-1)
[20] = molecular target: HIV-1 Env of pseudovirus 6535.3 (HIV-1)
[21] = molecular target: HIV-1 Env of pseudovirus R3265.c06 (HIV-1)
[22] = molecular target: HIV-1 Env of pseudovirus A07412M1.vrc12 (HIV-1)
[23] = molecular target: HIV-1 Env of pseudovirus 191955_A11 (HIV-1)
[24] = molecular target: HIV-1 Env of pseudovirus BJOX015000.11.5 (HIV-1)
[25] = molecular target: HIV-1 Env of pseudovirus CNE21 (HIV-1)
[26] = molecular target: HIV-1 Env of pseudovirus Ce704809221_1B3 (HIV-1)
[27] = molecular target: HIV-1 Env of pseudovirus T255-34 (HIV-1)
[28] = molecular target: HIV-1 Env of pseudovirus BJOX025000.01.1 (HIV-1)
[29] = molecular target: HIV-1 Env of pseudovirus Ce703010054_2A2 (HIV-1)
[30] = molecular target: HIV-1 Env of pseudovirus C1080.c03 (HIV-1)
[31] = molecular target: HIV-1 Env of pseudovirus ZM53M.PB12 (HIV-1)
[32] = molecular target: HIV-1 Env of pseudovirus HIV-0013095-2.11 (HIV-1)
[33] = molecular target: HIV-1 Env of pseudovirus HIV-001428-2.42 (HIV-1)
92BR020 R327A (HIV-1) = molecular target: 92BR020 R327A (HIV-1)
JR-CSF N332A (HIV-1) = JR-CSF N332A (HIV-1) (UniProt P20871)
92BR020 N301A (HIV-1) = molecular target: 92BR020 N301A (HIV-1)
[34] = molecular target: 92BR020 N136A + N156A + N301A (HIV-1)
92BR020 N386A (HIV-1) = molecular target: 92BR020 N386A (HIV-1)
92BR020 (HIV-1) = molecular target: 92BR020 (HIV-1)
JR-CSF N392A (HIV-1) = JR-CSF N392A (HIV-1) (UniProt P20871)
[35] = molecular target: BG505 (T332N) N137A (HIV-1)
JR-CSF H33OA (HIV-1) = JR-CSF H33OA (HIV-1) (UniProt P20871)
JR-CSF D325A (HIV-1) = JR-CSF D325A (HIV-1) (UniProt P20871)

BG18 IgG (354BG18) (antibody)
IC50 in TZM-bl assay [1]: > 30 mg/L
IC80 in TZM-bl assay [1]: > 30 mg/L
IC50 in TZM-bl assay [2]: 0.018 mg/L
IC80 in TZM-bl assay [2]: 0.25 mg/L
IC50 in TZM-bl assay [3]: > 30 mg/L
IC80 in TZM-bl assay [3]: > 30 mg/L
IC50 in TZM-bl assay [4]: > 30 mg/L
IC80 in TZM-bl assay [4]: > 30 mg/L
IC50 in TZM-bl assay [5]: 0.006 mg/L
IC80 in TZM-bl assay [5]: 0.02 mg/L
IC50 in TZM-bl assay [6]: 0.008 mg/L
IC80 in TZM-bl assay [6]: 0.04 mg/L
IC50 in TZM-bl assay [7]: 14 mg/L
IC80 in TZM-bl assay [7]: > 30 mg/L
IC50 in TZM-bl assay [8]: 0.219 mg/L
IC80 in TZM-bl assay [8]: 1.06 mg/L
IC50 in TZM-bl assay [9]: > 30 mg/L
IC80 in TZM-bl assay [9]: > 30 mg/L
IC80 in TZM-bl assay [10]: 0.002 mg/L
IC50 in TZM-bl assay [11]: > 30 mg/L
IC80 in TZM-bl assay [11]: > 30 mg/L
IC50 in TZM-bl assay [12]: 0.004 mg/L
IC80 in TZM-bl assay [12]: 0.012 mg/L
IC50 in TZM-bl assay [13]: > 30 mg/L
IC80 in TZM-bl assay [13]: > 30 mg/L
IC50 in TZM-bl assay [14]: 0.16 mg/L
IC80 in TZM-bl assay [14]: 5.96 mg/L
IC50 in TZM-bl assay [15]: 0.006 mg/L
IC80 in TZM-bl assay [15]: 0.019 mg/L
IC50 in TZM-bl assay [16]: 0.016 mg/L
IC80 in TZM-bl assay [16]: 0.116 mg/L
IC50 in TZM-bl assay [17]: 0.003 mg/L
IC80 in TZM-bl assay [17]: 0.013 mg/L
IC50 in TZM-bl assay [18]: > 30 mg/L
IC80 in TZM-bl assay [18]: > 30 mg/L
IC50 in TZM-bl assay [19]: 0.003 mg/L
IC80 in TZM-bl assay [19]: 0.016 mg/L
IC80 in TZM-bl assay [20]: 0.005 mg/L
IC50 in TZM-bl assay [21]: > 30 mg/L
IC80 in TZM-bl assay [21]: > 30 mg/L
IC50 in TZM-bl assay [22]: 0.081 mg/L
IC80 in TZM-bl assay [22]: 1.72 mg/L
IC50 in TZM-bl assay [23]: > 30 mg/L
IC80 in TZM-bl assay [23]: > 30 mg/L
IC50 in TZM-bl assay [24]: > 30 mg/L
IC80 in TZM-bl assay [24]: > 30 mg/L
IC50 in TZM-bl assay [25]: 0.002 mg/L
IC80 in TZM-bl assay [25]: 0.007 mg/L
IC50 in TZM-bl assay [26]: 4.39 mg/L
IC80 in TZM-bl assay [26]: > 30 mg/L
IC50 in TZM-bl assay [27]: > 30 mg/L
IC80 in TZM-bl assay [27]: > 30 mg/L
IC50 in TZM-bl assay [28]: > 30 mg/L
IC80 in TZM-bl assay [28]: > 30 mg/L
IC50 in TZM-bl assay [29]: > 30 mg/L
IC80 in TZM-bl assay [29]: > 30 mg/L
IC50 in TZM-bl assay [30]: 5.37 mg/L
IC80 in TZM-bl assay [30]: > 30 mg/L
IC50 in TZM-bl assay [31]: > 30 mg/L
IC80 in TZM-bl assay [31]: > 30 mg/L
IC50 in TZM-bl assay [32]: 10.5 mg/L
IC80 in TZM-bl assay [32]: 30 mg/L
IC50 in TZM-bl assay [33]: 0.004 mg/L
IC80 in TZM-bl assay [33]: 0.021 mg/L

PGT121 (antibody)
IC50 in TZM-bl assay (92BR020 R327A (HIV-1)): 0.001 mg/L
IC50 in TZM-bl assay [1]: > 10 mg/L
IC80 in TZM-bl assay [1]: > 10 mg/L
IC50 in TZM-bl assay (JR-CSF N332A (HIV-1)): > 50 mg/L
IC50 in TZM-bl assay (92BR020 N301A (HIV-1)): 0.003 mg/L
IC50 in TZM-bl assay [2]: 0.301 mg/L
IC80 in TZM-bl assay [2]: 3.2 mg/L
IC50 in TZM-bl assay [3]: 0.003 mg/L
IC80 in TZM-bl assay [4]: 0.083 mg/L
IC50 in TZM-bl assay [34]: 0.001 mg/L
IC50 in TZM-bl assay [5]: 0.005 mg/L
IC80 in TZM-bl assay [5]: 0.017 mg/L
IC50 in TZM-bl assay [6]: 0.008 mg/L
IC80 in TZM-bl assay [6]: 0.026 mg/L
IC50 in TZM-bl assay [7]: 0.01 mg/L
IC80 in TZM-bl assay [7]: 0.037 mg/L
IC50 in TZM-bl assay [8]: > 10 mg/L
IC80 in TZM-bl assay [8]: > 10 mg/L
IC50 in TZM-bl assay (92BR020 N386A (HIV-1)): 0.006 mg/L
IC50 in TZM-bl assay (92BR020 (HIV-1)): 0.004 mg/L
IC50 in TZM-bl assay (JR-CSF N392A (HIV-1)): 0.017 mg/L
IC50 in TZM-bl assay [9]: 0.772 mg/L
IC80 in TZM-bl assay [9]: 7.99 mg/L
IC80 in TZM-bl assay [10]: 0.037 mg/L
IC50 in TZM-bl assay [11]: > 10 mg/L
IC80 in TZM-bl assay [11]: > 10 mg/L
IC80 in TZM-bl assay [12]: 0.063 mg/L
IC50 in TZM-bl assay [13]: 8.92 mg/L
IC80 in TZM-bl assay [13]: > 10 mg/L
IC50 in TZM-bl assay [14]: 0.017 mg/L
IC80 in TZM-bl assay [14]: 0.085 mg/L
IC50 in TZM-bl assay [35]: 0.002 mg/L
IC50 in TZM-bl assay [15]: 0.002 mg/L
IC80 in TZM-bl assay [15]: 0.009 mg/L
IC50 in TZM-bl assay [16]: 0.008 mg/L
IC50 in TZM-bl assay [17]: 0.094 mg/L
IC80 in TZM-bl assay [17]: 0.45 mg/L
IC50 in TZM-bl assay [19]: 0.03 mg/L
IC80 in TZM-bl assay [19]: 0.108 mg/L
IC50 in TZM-bl assay [20]: 0.003 mg/L
IC80 in TZM-bl assay [20]: 0.01 mg/L
IC50 in TZM-bl assay (JR-CSF H33OA (HIV-1)): 0.017 mg/L
IC50 in TZM-bl assay [21]: > 10 mg/L
IC80 in TZM-bl assay [21]: > 10 mg/L
IC50 in TZM-bl assay (JR-CSF D325A (HIV-1)): 0.079 mg/L
IC50 in TZM-bl assay [22]: 0.034 mg/L
IC80 in TZM-bl assay [22]: 0.255 mg/L
IC50 in TZM-bl assay [23]: > 10 mg/L
IC80 in TZM-bl assay [23]: > 10 mg/L
IC50 in TZM-bl assay [24]: > 10 mg/L
IC80 in TZM-bl assay [24]: > 10 mg/L
IC50 in TZM-bl assay [25]: 0.009 mg/L
IC80 in TZM-bl assay [25]: 0.031 mg/L
IC50 in TZM-bl assay [26]: 0.043 mg/L
IC80 in TZM-bl assay [26]: 0.285 mg/L
IC50 in TZM-bl assay [27]: 2.63 mg/L
IC80 in TZM-bl assay [27]: > 10 mg/L
IC50 in TZM-bl assay [28]: > 10 mg/L
IC80 in TZM-bl assay [28]: > 10 mg/L
IC50 in TZM-bl assay [29]: > 10 mg/L
IC80 in TZM-bl assay [29]: > 10 mg/L
IC50 in TZM-bl assay [30]: > 10 mg/L
IC80 in TZM-bl assay [30]: > 10 mg/L
IC50 in TZM-bl assay [31]: 0.001 mg/L
IC80 in TZM-bl assay [31]: 0.005 mg/L
IC50 in TZM-bl assay [32]: > 10 mg/L
IC80 in TZM-bl assay [32]: > 10 mg/L
IC50 in TZM-bl assay [33]: 0.02 mg/L
IC80 in TZM-bl assay [33]: 0.126 mg/L
